Results published in patent US7645735B2, “Anti-angiogenic peptides for treating or preventing endometriosis” (Children's Medical Center Corporation, priority 2003, dated 2010).
“And” between values parts separate entries of the source, which are not always exact repeats. Equal values may be shown once.

Columns and labels:
[1] = tested on: human microvascular endothelial cells (HMVECs); assay: VEGF-induced migration of HMVECs, modified Boyden chamber; type: cell-based; details: 100 ng/ml, VEGF 5 ng/ml
Procedure: Endostatin peptides were tested for anti-endothelial cell migration activity. Inhibition of VEGF-induced migration of human microvascular endothelial cells (HMVECs) was determined using several doses of endostatin peptides (FIG. 5). Human peptides were used because the cells were of human origin and the migration response of the HMVECs was assayed using a modified Boyden chamber. VEGF (5 ng/ml) was used a chemotactic agent and cells were challenged with human endostatin (Entremed; EM-ES), human Fc-Endostatin (nFcES), human P1 (hP1), human P2 (hP2), human P6 (hP6), and human P1-H1/3A (hP1-H1/3A). Total migration per membrane was quantified from the capture images using Scion Image Software (National Institutes of Health) and the unpaired Student T test was used for statistical analysis. […] No significant differences in inhibition between these concentrations were observed. At higher and lower concentrations less or no inhibition was observed. At 500 ng/ml of hP1 no inhibition was observed. Thus, similar to full-length endostatin, there is a U-shaped response to hP1 inhibition of EC migration.
The motility response of HMVEC-d cells was assayed using a modified Boyden chamber. Cells were plated in T75-cm2 flasks at 0.5×10^6 cells per flask and allowed to grow for 48 h (˜70% confluent) prior to the migration assay. To facilitate cell adhesion, the upper membrane of a transwell ([…]; Costar) was coated with fibronectin ([…]; Becton Dickinson, Bedford, Mass.) for 1 h at 37° C. Coated membranes were rinsed with PBS and allowed to air dry immediately before use. Cells were detached by trypsinization, treated with trypsinization neutralization solution (Clonetics), and resuspended at a final concentration of 1×10^6 cells/ml in serum-free endothelial basal medium (EBM; Clonetics) containing 0.1% BSA. Cells (200,000 in 0.2 ml) were then treated with 0.2 ml of EBM/BSA containing endostatin or peptides at the indicated concentrations. Cells were incubated for 20 min. at 37° C. with occasional shaking. Cells (50,000 in 100 μl) were added to the upper chamber of the transwell. EBM or EBM supplemented with VEGF (5 ng/ml) was added to the lower chamber and cells were allowed to migrate toward the bottom chamber for 4 h in a humidified incubator containing 5% CO2. Transwell filters were rinsed once with PBS and fixed and stained using a Diff-Quik staining kit (Baxter) following the manufacturer's protocol. Non-migrated cells were removed from the upper chamber with a cotton swab. Stained filters were cut out of the chamber and mounted onto slides using Permount (Fisher). The number of migrated cells was measured using microscopy (three fields from each membrane were captured using a 40× objective), and images were captured with a CCD camera using SPOT software. Total migration per membrane was quantified from the captured images using Scion Image software (National Institutes of Health). All experiments were run in triplicate. The unpaired Student t-test was used for statistical analysis.

[2] = tested on: human umbilical vein endothelial cells (HUVEC); assay: VEGF stimulated migration of HUVEC, modified Boyden chambers; type: cell-based; details: FIG. 13
Procedure: Cell migration assays were performed using modified Boyden chambers (6.5-mm diameter, 10-μm thickness, 8-μm pores, Transwell-Costar Corp., Cambridge, Mass.) coated with 10 μg/ml fibronectin in PBS overnight at 4° C. and rinsed with PBS. Subconfluent cells were trypsinized (0.01% trypsin/5 mM EDTA), neutralized with trypsin neutralization solution (Cascade Biologics Inc., Portland, Oreg.), washed, and resuspended in endothelial basal medium (EBM; Clonetics) with 0.1% BSA in the presence or absence of human endostatin (40, 200, 1000 ng/ml). In a second experiment we added either 600 ng/ml human endostatin or mP-1 at various doses (60, 200, 600 ng/ml). Cells were maintained in suspension for 30 min, added to the top of each migration chamber and allowed to migrate for 4 h in the presence or absence of VEGF (5 ng/ml) in lower chamber. Adherent cells were fixed and stained using the Hema-3 Stain System (Fisher Diagnostics, Middletown, Va.), following manufacturer's instructions. Non-migratory cells were removed with a cotton swab, and the number of migratory cells per membrane was captured using bright field microscopy connected to a Spot digital camera (Diagnostic Instruments, Sterling Heights, Mich.). Migrated cells from the captured image were counted using NIH image software. […]

[3] = tested on: Female SCID mice; assay: Fertility, pregnancy and offspring in tumor-bearing female SCID mice
Procedure: Female SCID mice were injected with human pancreatic tumor cells subcutaneously. When tumors reached a volume of approximately 100 mm^3 endostatin or placebo treatment was initiated and continued until the end of the study. After three days, females were mated.
Human BxPC-3 cells were grown in cells culture as described above. After washing with sterile PBS, cells were trypsinized and briefly re-suspended in RPMI 1640 medium containing 10% fetal calf serum (FCS) and 1% glutamine penicillin streptomycin (GPS) solution. After centrifuging, the cell concentration was adjusted to 50×10^6 cells/ml in additive-free RPMI 1640 medium and kept on ice. Female SCID mice were shaved on the dorsal side and the naked skin was cleaned with ethanol prior to injection. A suspension of 5×10^6 cells/ml in 100 μl was then injected subcutaneously into the dorsa of these mice at about one centimetre left of the midline.
Mice were weighed and tumors were measured every 7 days in two diameters using a dial-caliper. Tumor volumes were calculated using the formula a^2×b×0.52, while a being the shorter and b being the longer diameter. When tumors had reached a volume of approximately 100 mm^2 mice were divided into four groups.
During the first experiment, one group received endostatin (20 mg/kg; n=8) or vehicle (n=8) via subcutaneous osmotic pumps (Durect Corp., Cupertino, Calif.). Pumps were inserted via a small incision and placed into a subcutaneous pocket on the right lateral aspect of the animals' dorsa. The pumps were changed every week for a total of four weeks.
The other group received daily subcutaneous injections of endostatin (100 mg/kg, n=5) or vehicle (n=5) for the same period.
During a second study we repeated the experiment with endostatin in subcutaneous pumps. The other group in this series received the murine N-terminal fragment of endostatin (mP-1) at a dose of 2.5 mg/kg twice daily or PBS (n=5 each).
Three days after initiation of treatment female mice were added to a cage containing a male SCID mouse in a 1:1 ratio. All males had been housed separately three days prior to encountering the females and female bedding had been added to the male cages to enhance the males' libido.
For the following seven days every female was checked for a vaginal mucous plug as a sign of mating. These exams were performed during the early morning hours to optimize the results. Once a mucous plug had been noticed, mating was considered ‘successful’, and the female was not further examined in order to minimize iatrogenic stress.
Over the course of pregnancy the following parameters were assessed: ‘Mating Time’ describing the time between male encounter and the occurrence of a mucous plug; ‘Pregnancy Rate’, measured by ultrasound 15 days after the mucous plug was observed. The number of viable fetus was counted during this procedure; ‘Length of Pregnancy’, as measured from the time of successful mating to delivery; ‘Number of Total and Viable Litter’, counted on the day of birth; ‘Weight of Individual Pup’, by weighing the entire litter on the day of birth and calculating the mean weight.

B1: human endostatin (EntreMed): recombinant human endostatin, gift from EntreMed Corporation (protein, listed as Homo sapiens)
chain: HSHRDFQPVLHLVALNSPLSGGMRGIRGADFQCFQQARAVGLAGTFRAFLSSRLQDLYSIVRRADRAAVPIVNLKDELLFPSWEALFSGSEGPLKPGARIFSFNGKDVLTHPTWPQKSVWHGSDPNGRRLTESYCETWRTEAPSATGQAYSLLGGRLLGQSAASCHHAYIVLCIENSFMTASK
For B1, which “inhibition of EC migration” value [1] is on record?
Its value is “not at 100 ng/ml”.

And the “migration of HUVEC” value [2]?
The value was “inhibit migration”.

What about the “mean length of pregnancy” value ([3]; endostatin pumps, two experiments) of the same molecule?
The value was 20.6 ± 1.2 days and 20.75 ± 2 days.

What about the “pregnancy rate with live births” value ([3]; injection group) of the same molecule?
The value was 60%.

What about the “litter size per delivery” value ([3]; injection studies, PBS 4.2±2.4) of the same molecule?
The value was 5±1.

What about the “effect on the offspring” value ([3]; offspring of treated mice) of the same molecule?
Its value is “did not see any negative effect on the offspring”.

And the “litter size per delivery” value ([3]; pump group, PBS 4.6±1.7)?
Its value is 5±1.8.

And the “mean weight of pups on the day of delivery” value ([3]; pump groups, PBS 1.4)?
Its value is 1.51 g.

And the mating time ([3]; s.c. injections (endostatin 100 mg/kg daily; mP-1 2.5 mg/kg twice daily), PBS 1.9±0.9)?
Its mating time is 2.8 ± 1.5 days.

And the mating time ([3]; s.c. osmotic pumps (endostatin 20 mg/kg), PBS 2.0±1)?
The mating time was 2.6 ± 1.4 days.
